Measured values: US20160207996A1 (ARGEN X N V, published 2016)

T1: hNav1.7-loopA3-llama Fc fusion (human)
T1 construct: also called hNav1.7-loopA3-llFc; loopA3-llamaFc chimera
T1 chain: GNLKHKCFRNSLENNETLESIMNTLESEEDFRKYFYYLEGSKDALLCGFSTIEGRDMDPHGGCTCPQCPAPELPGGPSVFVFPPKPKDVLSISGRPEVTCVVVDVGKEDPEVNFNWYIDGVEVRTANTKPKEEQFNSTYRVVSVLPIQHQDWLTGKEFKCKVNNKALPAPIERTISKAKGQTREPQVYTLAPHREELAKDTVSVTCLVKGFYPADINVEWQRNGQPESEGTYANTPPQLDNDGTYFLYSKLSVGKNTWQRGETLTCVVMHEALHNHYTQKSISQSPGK


Legend:
[1] = target: T1, hNav1.7-loopA3-llama Fc fusion; test: Biacore SPR, antigen on CM5 chip, mAb in flow
Procedure: (§1) In a further experiment, affinity of the loopA3-binding mAbs was determined using Biacore Surface Plasmon Resonance (SPR) analysis.

[2] = target: T2, GST-tagged hNav1.7-loopA3 (human, UniProt Q15858 269-339); test: Biacore SPR, antigen on CM5 chip, mAb in flow
T2 construct: monomeric GST-tagged peptide; also called hNav1.7-loopA3-GST; Nav1.7-loopA3-GST; not shown: GST tag
Procedure: as §1

[3] = target: T1, hNav1.7-loopA3-llama Fc fusion; test: ELISA, coated hNav1.7-loopA3-llama Fc, mAb titrated
Procedure: mAbs originating from the loopA3-llama Fc immunization were assayed for their affinity for hNav1.7-loopA3. Therefore, a Maxisorp plate was coated with 10 ng/well of loopA3-llamaFc chimera and incubated overnight at 4° C. The next day, the plate was blocked with PBS+1% casein for 2 hours at RT. Subsequently a concentration gradient of antibodies was applied (range 0.25 pM-66 nM) for another hour. Antibody binding to loopA3 was detected using a HRP-conjugated anti-human Fc antibody (Abcam, Ab7499) (incubation 1 hour at RT, dilution 1/5000 in PBS+0.1% casein), followed by TMB addition and OD620 nm measurement. EC50 values were determined using GraphPad Prism software. For comparison purposes a known hNav1.7-loopA3 binding monoclonal antibody, UCB_932 (US2011/0135662), was tested.

Nt-GCGR-hFc = target: T3, Nt-GCGR-hFc (human, UniProt P47871 26-136); test: scFv binding ELISA, periplasmic extract on coated Nt-GCGR
T3 construct: domain: N-terminal domain; also called Nt-GCGR-Fc; recombinant N-terminal domain of GCGR; not shown: hFc
T3 sequence (P47871 26-136): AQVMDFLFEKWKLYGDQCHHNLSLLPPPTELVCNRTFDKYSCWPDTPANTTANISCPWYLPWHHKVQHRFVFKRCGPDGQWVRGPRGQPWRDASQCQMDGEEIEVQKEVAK

T2 sequence (Q15858 269-339 limits assumed): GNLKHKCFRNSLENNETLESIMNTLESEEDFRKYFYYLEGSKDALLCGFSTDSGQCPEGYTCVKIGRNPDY

Binder | Kd [1] [nM] | koff [1] [s⁻¹] | Kd [2] [nM] | koff [2] [s⁻¹] | EC50 [3] [nM] | ScFv binding ELISA signal (Nt-GCGR-hFc)
scFv C3 (scFv) QVQRQESGGGLVQPGGSLRLSCATSGFTFSNYYMSWVRQAPGKGPEWVSSIYSDLSTTYYADSVKGRFTISRDRAKNTLYLQMNSLKSEDTAVYYCARLSTVAGVDYWGKGTLVTVSSSYELTQSPSVSVALRQTAKITCGGNNIGSKSAQWYQQKPGQAPVLVIYADVRRPSEIPERFSGSNSGNTATLSVSGAQAEDEADYYCQVWDSSANAAVFGGGTHLTVLG |  |  |  |  |  | 0.058
scFv D3 (scFv) QVQVQESGGGLVQPGGSLRLSCATSGFTFSNYYMSWVRQAPGKGPEWVSSIYSDLSTTYYADSVKGRFTISRDRAKNTLYLQMNSLKSEDTAVYYCARLSTVAGMDYWGKGTLVTVSSSYELTQSPSVSVALRQTAKITCGGNDIESKSAQWYQQKPDQAPVLVIYADDRRPSEIPERFSGSNSGDTATLTISGAQAEDEADYYCQVWDSSANAAVFGGGTHLTVLG |  |  |  |  |  | 0.987
scFv C4 (scFv) QVQLQESGPGLVKPSQTLSLTCTVSGGSITTNYYYWSWIRQPPGKGLEWMGAIAYSGSTYYSPSLKSRTSISRDTSKNQFTLQLSSVTPEDTAVYYCARGYYSGSSLDFGSWGQGTQVTVSSLPVLTQPSAVSVSLGQTARITCQGGNVGSYYTSWYQQKPGQAPVLVIYKDSERPSGIPERFSGSSSGNTATLTVSGAQAEDEGDYYCQVWDSSAAVFGGGTHLTVLG |  |  |  |  |  | 0.274
3F11 (antibody, human IgG1, V domains shown) VH: QVQLVESGGGLVQPGGSLRLSCAASGFTFSSYWMYWVRQAPGKGLEWVSAINTGGGSTYYADSVKGRFTISRDNAKNTLYLQMNSLKPEDTALYYCARGPGYSGSYIEGWAYWGQGTQVTVSS VL: DIVMTQSPTSVTASVGEKVTINCKSSQSVVSGSNQKSYLNWYQQRPGQSPRLLIYHASTQESGIPDRFSGSGSTTDFTLTISSVQPEDAAVYYCQQAYNNPYSFGSGTRLEIK | 0.0253 | 1.56e-05 | 0.0374 | 1.77e-05 | 0.072 | 
2F12 (antibody, human IgG1, V domains shown) VH: QVQLVESGGGLVQPGGSLRLSCAASGFTFSSYWMYWVRQAPGKGLEWVSAINTGGGSTYYADSVKGRFTISRDNAKNTLYLQMNSLKPEDTALYYCARGPGYSGKYIEGWAYWGQGTQVTVSS VL: DIVMTQSPRSVTASVGEKVFINCKSSQSVVSESNQRSYLNWYQQRPGQSPRLLIYYASTQESGLPDRFSGSGSTTDFTLTISSVQPEDAAVYYCQQAYSAPYSFGSGTRLEIK | 0.0241 | 1.92e-05 | 0.0169 | 1.08e-05 | 0.057 | 
3E1 (antibody, human IgG1, V domains shown) VH: EVQVQESGGGLVQPGGSLRLSCAASGFTFSSYWMYWVRQAPGKGLEWVSAINTGGGSTYYADSVKGRFTISRDNAKNTLYLQMNSLKPEDTALYYCARGPGYSGKYIEGWAYWGQGTQVTVSS VL: DIVMTQSPSSVTASVGEKVTINCKSSQSVVSGSKQKSYLNWYQQRPGQSPRLLIYYASTQESGIPDRFSGSGSTTDFTLTISSVQPEDAAVYYCQQAYSAPYSFGSGTRLEIK | 0.2 | 0.00041 | 0.216 | 0.000356 | 0.063 | 
scFv C2 (scFv) QLQLVESGGGLQQPGGSLRLSCAASGFTFSSYAMGWVRQAPGKGLEWISIILNDGHRTYYTDSVKGRFTISRDNAKDTLSLQMNSLKPEDTAVYFCVKYVLNWAISDWGQGTQVTVSSQSVLTQPPSVSGSPGKTVTISCAGTSSDVGYGNYVSWYQQLPGMAPKLLIYNANKRASGITDRFSASKSGNTASLTISGLQSGDEAVYYCASYRYRDNAVFGGGTHLTVLG |  |  |  |  |  | 0.465

Further lines, results first:

Kd [1] [nM] | koff [1] [s⁻¹] | Kd [2] [nM] | koff [2] [s⁻¹] | EC50 [3] [nM] | ScFv binding ELISA signal (Nt-GCGR-hFc) | Binder
5.1 | 0.00422 | 3.35 | 0.00254 | 0.874 |  | 4F6 (antibody, human IgG1, V domains shown) VH: QLQLVESGGGLVQPGGSLRLSCAASGFTFDDYAMSWVRQAPGKGLEWVSAISWNGGSTYYAESMKGRFTISRDNAKNTLYLQMNSLKSKDTAVYYCARRRYGLGSEYDYWGQGTQVTVSS VL: HSAVTQPSAVSVSLGQTARITCQGTNLRSSYVHWYQQMPGQAPVLVIYRDSERPSGIPERFSGSSSGGTATLAISGAQAEDEADYYCQSAHRSESAVFGGGTHLTVLG
 |  |  |  |  | 0.52 | scFv D2 (scFv) ELQLVESGGGLVQPGGSLRLSCATSGFTFSNYYMSWVRQAPGKGPEWVSSIYSDLSTTYYADSVKGRFTISRDRAKNTLYLQMNSLKSEDTAVYYCARLSTVAGVDYWGKGTLVTVSSSYELTQSPSVSVALRQAAKITCGGNDIGSKSAQWYQQKPGQAPVLVIYADSRRPSGIPERFSGSNSGNTATLTISGAQAEDEADYYCQVWDSSANAAVFGGGTHLTVLG
0.0375 | 1.26e-05 | 0.0879 | 2.13e-05 | 0.071 |  | 2D11 (antibody, human IgG1, V domains shown) VH: EVQLQESGPGLVKPSQTLSLTCTVSGGSITNSYYASSWIRQPPGKGLEWMGVIIYDGSTYYSPSLKSRTSISRDTSKNQFSLQLSSVTPEDTAVYYCARGLRVAGSYFTDFGTWGQGTQVTVSS VL: SYELTQSPSVSVALRQAAKITCGGDNIASKHAHWYQQKPGQSPVLVIYKDSNRPSGIPERFSGSNSGNTATLTVSGAQAEDEADYYCQVWDSSANAAVFGGGTHLTVLG
 |  |  |  |  | 1.54 | scFv C1 (scFv) ELQVVESGGGLVPGGSLRLSCAASGFRVSVNAMSWVRQAPGKGLEWVSHIGSGGITGYADSVKGRFTISRDSAKNTLYLQMNSLKPEDTAVYYCTKRSSGYAWGQGTQVTVSSQAGLTQLPSVSGSPGQKITISCTGSSNNIGAGYSVQWFQQVPGSPPRLLIDGATNRDSGVPDRFSDSRSGSSASLTITGLQAEDEADYYCECYDNSLRGAVFGGGTHLTVLG
 |  |  |  |  | 0.88 | scFv C10 (scFv) EVQLVQPGAELRNPGASVKVSCKASGYTFTAYYIDWVRQAPGQGLEWMGRIDPEDGGTTYEQKFQGRVTFTADTSTSTVYVELSSLRSEDTAVYYCARSTEIPTIRYYGMDYWGKGTPVTVSSASAAASGSYELTQSPSVSVALRQTAKITCGGDNIGSKSAQWYQQKPGQAPVLVIYADSRRPSGIPERFSGSNSGNTATLTISGAQAEDEADYYCQVWDSSANAAVFGGGTHLTVLG
 |  |  |  |  | 0.1 | scFv D1 (scFv) QVQLQESGGGLVQPGGSLRLSCAASGFTFSWYAMSWVRQGPGKGLEWVSGINGGGGSTSYEDSVKGRFTISRDNAKNTLYLEMNSLKPEDTAVYYCARYSDGYSGSYTYTDMDYWGKGTLVSVSSQAVVTQEPSLSVSPGGTVTLTCGLNSGSVTNGNYPGWYQQTPGQAPRALIYSTNSRHSGVPGRYSGSISGNKAALTITGAEPEDEADYYCALWQAAGTVVFGGGTHLTVLG
 |  |  |  |  | 1.88 | scFv C5 (scFv) QLQLVESGGGLVEPGGSLRLSCAASGFTFSNYYMSWVRQAPGKGPEWVSSIYSDLSTTYYADSVKGRFTISRDRAKNTLYLQMNSLKSEDTAVYYCARLSTVAGVDYWGKGTLVTVSSSYELTQSPSVSVALRQTAKITCGGNNIGSKSAQWYQQKPGQAPVLVIYADSRRPSGIPERFSGSNSGNTATLTISGAQAEDEADYYCQVWDSSSNGAVFGGGTHLTVLG
